Laboratory results reported in article doi:10.1101/2021.12.01.470723.
Where two headings read alike, the source gives them in different places.

Assays:
Asp105 = Asp105 (UniProt position 105, GLVVYDYQQLL); assay: CD spectroscopy; settings: 25 °C; Free folded domain, 4.2-10 µmol/L protein
[1] = molecular target: rh wildtype Bri2 BRICHOS (human) (UniProt Q9Y287); assay: SEC
[2] = molecular target: rh wildtype Bri2 BRICHOS (human) (UniProt Q9Y287); assay: SEC; remark: listed apart in the source

## Prosurfactant protein C (proSP-C) BRICHOS domain, wild type (Homo sapiens)
Asp105
  pKa: about 6.1

## rh wildtype Bri2 BRICHOS (from UniProt Q9Y287 113-231) (domain or fragment)
[1]
  stoichiometry N: 2
[2]
  stoichiometry N: 2
